Bridge positions count the residues as written; N and C are the ends. Square brackets hold non-standard residues; d marks the D form. Peptide text beside a SMILES is read from it. hArg = N=C(N)NCCCC[C@H](N)C(=O)O; Ac5c = NC1(C(=O)O)CCCC1; Abu = CC[C@H](N)C(=O)O; Aib = CC(C)(N)C(=O)O
What was measured:
Saos-2 PTH1R [1] = target: T1, Saos-2 PTH1R (Homo sapiens, UniProt Q03431); test: cAMP-efficacy assay in Saos-2 cells; assay type: cell-based
T1 construct: endogenous in cells; host or cells: Saos-2
T1 sequence (Q03431 27-593): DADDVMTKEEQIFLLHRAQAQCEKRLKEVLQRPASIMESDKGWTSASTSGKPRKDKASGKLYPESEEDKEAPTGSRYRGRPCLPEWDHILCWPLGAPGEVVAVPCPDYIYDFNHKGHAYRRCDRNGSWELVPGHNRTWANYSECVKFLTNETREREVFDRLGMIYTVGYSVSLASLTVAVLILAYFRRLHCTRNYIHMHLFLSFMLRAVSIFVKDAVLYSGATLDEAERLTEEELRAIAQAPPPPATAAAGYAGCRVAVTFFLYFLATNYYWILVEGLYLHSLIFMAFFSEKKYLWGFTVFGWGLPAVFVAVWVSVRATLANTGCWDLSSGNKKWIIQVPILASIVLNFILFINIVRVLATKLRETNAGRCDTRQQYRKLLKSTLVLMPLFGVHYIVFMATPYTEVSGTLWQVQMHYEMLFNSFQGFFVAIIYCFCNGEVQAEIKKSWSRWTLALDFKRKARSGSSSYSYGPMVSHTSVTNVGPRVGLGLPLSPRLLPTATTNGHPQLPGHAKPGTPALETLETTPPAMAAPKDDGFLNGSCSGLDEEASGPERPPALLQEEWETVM
How it was run: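 cAMP accumulation was assayed by FlashPlate after 15 min peptide stimulation at 37 °C of Saos-2 cells in Tyrode's buffer containing 100 μM IBMX and 0.1% BSA, with the reaction stopped by ice-cold HCl. Variable-slope logistic fitting gave EC50/pEC50, Hill coefficient and Emax, with single or triplicate points.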

CYP2D6 = CYP2D6 (Homo sapiens, UniProt P10635); test: CYP2D6 inhibition in pooled human liver microsomes; assay type: in vitro ADME; design: Pooled human liver microsomes (HLM, final concentration 0.05 mg protein/mL); tissue BD Biosciences 452161; host or cells: pooled human liver microsomes; settings: 10 μM compound, dextrorphan formation rate
Protocol: Stock solutions of the test compounds (1 mM) were prepared in 50% isopropanol or 20% DMSO. Pooled human liver microsomes (HLM, final concentration 0.05 mg protein/mL) were mixed with phosphate buffer (0.1 M potassium phosphate, pH 7.4), CYP2D6 substrate (dextrometrorphan, 5 μM final concentration) and test compound (10 μM), quinidine (0.5 μM) or vehicle (0.2% DMSO or 0.5% isopropanol). The mixture was preincubated for 5 min at 37° C. prior to initiation of the reaction addition of a NADPH regenerating mixture (Final concentration: 1.25 mM NADP^+, 3.3 mM Glucose-6-phosphate, 3.3 mM MgCL2 and 0.4 U/mL glucose-6-phosphat dehydrogenase). After 5 minutes the reaction was stopped by addition of 0.25 volume stop reagent (94% acetonitrile, 6% acetic acid). Each experiment was performed in duplicate or triplicate.
The quantification of CYP2D6 product (dextrorphan) was performed by LC/MS/MS. After centrifugation for 5 min at 10.000 g, 40 μL of the supernatant was injected onto a C8 RP-HPLC column (XterraMS, C8, […], 50×2.1 mm). Dextrorphan was eluted by a linear gradient from 0 to 90% acetonitrile in 0.1% formic acid over 4 min using a flow rate of 0.15 ml/min. The concentration of dextrorphan in the reaction mixture was estimated from the peak area of the MS/MS transition (m/z 258.1>199) using an external calibration curve (Table 8).
The CYP2D6 activity in HLM was calculated as the metabolite formation rate: […]
Where, v is the formation rate, [metabolite] is the detected concentration of dextrorphan (pmol/mL) at the time (t, min) and [protein] is the protein concentration (mg/mL) in the reaction mixture. The influence of the test compounds on the CYP2D6 activity was calculated as % of the activity measured when incubated with the vehicle. The effect of CYP2D6 inhibitor (quinidine) was included as inhibition control within each batch analysis. A reduction in CYP2D6 activity to less than 70% of the vehicle control was considered significant.

Saos-2 PTH1R [2] = target: Saos-2 PTH1R (UniProt Q03431); test: cell-based or functional assay
[3] = cAMP, 100 μM IBMX, 37° C. 15 min, suffix of label = salt tested

CYP2D6, sequence (P10635 whole entry): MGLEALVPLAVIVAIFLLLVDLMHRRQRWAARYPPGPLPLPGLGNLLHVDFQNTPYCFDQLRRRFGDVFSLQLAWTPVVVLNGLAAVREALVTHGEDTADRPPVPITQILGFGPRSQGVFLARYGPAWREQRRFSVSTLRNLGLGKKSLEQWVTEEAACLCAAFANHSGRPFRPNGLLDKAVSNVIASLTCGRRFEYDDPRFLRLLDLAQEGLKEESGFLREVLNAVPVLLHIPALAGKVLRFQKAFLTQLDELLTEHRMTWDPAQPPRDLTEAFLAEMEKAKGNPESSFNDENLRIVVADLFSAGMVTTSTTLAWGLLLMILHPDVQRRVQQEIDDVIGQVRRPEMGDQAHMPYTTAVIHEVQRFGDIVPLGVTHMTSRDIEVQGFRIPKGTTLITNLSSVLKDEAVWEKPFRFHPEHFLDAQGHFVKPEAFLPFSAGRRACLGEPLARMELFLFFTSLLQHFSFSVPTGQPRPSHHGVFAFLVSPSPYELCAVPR

CC[C@H](C)[C@H](NC(=O)[C@H](CCC(=O)O)NC(=O)C(C)(C)NC(=O)[C@@H](NC(=O)C1(N)CCCC1)C(C)C)C(=O)N[C@@H](CCC(N)=O)C(=O)N[C@@H](CC(C)C)C(=O)N[C@@H](CCSC)C(=O)N[C@@H](Cc1c[nH]cn1)C(=O)N[C@@H](CC(N)=O)C(=O)N[C@@H](CC(C)C)C(=O)NCC(=O)N[C@@H](CCCCN)C(=O)N[C@@H](Cc1c[nH]cn1)C(=O)N[C@@H](CC(C)C)C(=O)N[C@@H](CC(N)=O)C(=O)N[C@@H](CC(=O)O)C(N)=O [SEQ ID NO: 1] (H-[Ac5c]V[Aib]EIQLMHNLGKHLND-NH2)
pEC50 ± SEM (Saos-2 PTH1R [1]; [3]): inactive | CYP2D6 activity (% of vehicle) (CYP2D6): 57 % of vehicle

CC[C@H](C)[C@H](NC(=O)[C@H](CCC(=O)O)NC(=O)C(C)(C)NC(=O)[C@@H](NC(=O)C1(N)CCCC1)C(C)C)C(=O)N[C@@H](CCC(N)=O)C(=O)N[C@@H](CC(C)C)C(=O)N[C@@H](CCSC)C(=O)N[C@@H](Cc1c[nH]cn1)C(=O)N[C@@H](CCC(N)=O)C(=O)N[C@@H](CCCCNC(=N)N)C(=O)N[C@@H](C)C(=O)N[C@H]1CCCCNC(=O)C[C@@H](C(=O)O)NC(=O)[C@H](CC(N)=O)NC(=O)[C@H](CC(C)C)NC(=O)[C@H](Cc2c[nH]c3ccccc23)NC1=O [SEQ ID NO: 4, H-Ac5c-Val-Aib-Glu-Ile-Gln-Leu-Met-His-Gln-Har-Ala-Lys( )-Trp-Leu-Asn-Asp( )-OH] (H-[Ac5c]V[Aib]EIQLMHQ[hArg]AKWLND-OH; lactam 13-17)
potency compared to linear / non-stabilized counterparts, in words (Saos-2 PTH1R [1]; cAMP): clearly higher potency | EC50 (Saos-2 PTH1R [1]; [3]): 0.038 µM | potency compared to linear / non-stabilized counterparts, in words (Saos-2 PTH1R [1]; cAMP, listed as 4): increased potencies | potency compared to linear / non-stabilized counterparts, in words (Saos-2 PTH1R [1]; cAMP, listed as SEQ ID NO:4): higher potency | Emax ± SEM (Saos-2 PTH1R [1]; relative effect to the control (SEQ ID NO: 32)): 1.11 ± 0.03 | CYP2D6 activity (% of vehicle) (CYP2D6): 89 % of vehicle

B1: H-Aib-Val-Ac5c-Glu-Ile-Gln-Leu-Leu-His-Gln-Har-Ala-Lys( )-Trp-Leu-Asn-Asp( )-NH2 (peptide)
chain: H-[Aib]V[Ac5c]EIQLLHQ[hArg]AKWLND-NH2
modifications: lactam 13-17
SMILES: CC[C@H](C)[C@H](NC(=O)[C@H](CCC(=O)O)NC(=O)C1(NC(=O)[C@@H](NC(=O)C(C)(C)N)C(C)C)CCCC1)C(=O)N[C@@H](CCC(N)=O)C(=O)N[C@@H](CC(C)C)C(=O)N[C@@H](CC(C)C)C(=O)N[C@@H](Cc1c[nH]cn1)C(=O)N[C@@H](CCC(N)=O)C(=O)N[C@@H](CCCCNC(=N)N)C(=O)N[C@@H](C)C(=O)N[C@H]1CCCCNC(=O)C[C@@H](C(N)=O)NC(=O)[C@H](CC(N)=O)NC(=O)[C@H](CC(C)C)NC(=O)[C@H](Cc2c[nH]c3ccccc23)NC1=O
Emax, cAMP efficacy assay in Saos-2 cells (13T, trifluoroacetate salt) (relative to control (SEQ ID NO: 32)) (Saos-2 PTH1R [2]): 0.96 | pEC50, cAMP efficacy assay in Saos-2 cells (13T, trifluoroacetate salt) (Saos-2 PTH1R [2]): 7.27 -log(M)

B2: H-Ac5c-Val-Aib-Glu-Ile-Gln-Leu-Met-His-Gln-Har-Ala-Lys( )-Trp-Leu-Asp-Asp( )-NH2 (peptide)
chain: H-[Ac5c]V[Aib]EIQLMHQ[hArg]AKWLDD-NH2
modifications: lactam 13-17
SMILES: CC[C@H](C)[C@H](NC(=O)[C@H](CCC(=O)O)NC(=O)C(C)(C)NC(=O)[C@@H](NC(=O)C1(N)CCCC1)C(C)C)C(=O)N[C@@H](CCC(N)=O)C(=O)N[C@@H](CC(C)C)C(=O)N[C@@H](CCSC)C(=O)N[C@@H](Cc1c[nH]cn1)C(=O)N[C@@H](CCC(N)=O)C(=O)N[C@@H](CCCCNC(=N)N)C(=O)N[C@@H](C)C(=O)N[C@H]1CCCCNC(=O)C[C@@H](C(N)=O)NC(=O)[C@H](CC(=O)O)NC(=O)[C@H](CC(C)C)NC(=O)[C@H](Cc2c[nH]c3ccccc23)NC1=O
Emax, cAMP efficacy assay in Saos-2 cells (23T, trifluoroacetate salt) (relative to control (SEQ ID NO: 32)) (Saos-2 PTH1R [2]): 1.16 | pEC50, cAMP efficacy assay in Saos-2 cells (23T, trifluoroacetate salt) (Saos-2 PTH1R [2]): 7.48 -log(M)

B3: H-Ac5c-Val-Aib-Glu-Ile-Gln-Phe-Leu-His-Gln-Har-Ala-Lys( )-Trp-Leu-Asn-Asp( )-NH2 (peptide)
chain: H-[Ac5c]V[Aib]EIQFLHQ[hArg]AKWLND-NH2
modifications: lactam 13-17
SMILES: CC[C@H](C)[C@H](NC(=O)[C@H](CCC(=O)O)NC(=O)C(C)(C)NC(=O)[C@@H](NC(=O)C1(N)CCCC1)C(C)C)C(=O)N[C@@H](CCC(N)=O)C(=O)N[C@@H](Cc1ccccc1)C(=O)N[C@@H](CC(C)C)C(=O)N[C@@H](Cc1c[nH]cn1)C(=O)N[C@@H](CCC(N)=O)C(=O)N[C@@H](CCCCNC(=N)N)C(=O)N[C@@H](C)C(=O)N[C@H]1CCCCNC(=O)C[C@@H](C(N)=O)NC(=O)[C@H](CC(N)=O)NC(=O)[C@H](CC(C)C)NC(=O)[C@H](Cc2c[nH]c3ccccc23)NC1=O
Emax, cAMP efficacy assay in Saos-2 cells (27T, trifluoroacetate salt) (relative to control (SEQ ID NO: 32)) (Saos-2 PTH1R [2]): 0.92 | pEC50, cAMP efficacy assay in Saos-2 cells (27T, trifluoroacetate salt) (Saos-2 PTH1R [2]): 7.91 -log(M)

B4: H-Ac5c-Val-Abu-Glu-Ile-Gln-Leu-Leu-His-Gln-Har-Ala-Lys( )-Trp-Leu-Asn-Asp( )-NH2 (peptide)
chain: H-[Ac5c]V[Abu]EIQLLHQ[hArg]AKWLND-NH2
modifications: lactam 13-17
SMILES: CC[C@H](NC(=O)[C@@H](NC(=O)C1(N)CCCC1)C(C)C)C(=O)N[C@@H](CCC(=O)O)C(=O)N[C@H](C(=O)N[C@@H](CCC(N)=O)C(=O)N[C@@H](CC(C)C)C(=O)N[C@@H](CC(C)C)C(=O)N[C@@H](Cc1c[nH]cn1)C(=O)N[C@@H](CCC(N)=O)C(=O)N[C@@H](CCCCNC(=N)N)C(=O)N[C@@H](C)C(=O)N[C@H]1CCCCNC(=O)C[C@@H](C(N)=O)NC(=O)[C@H](CC(N)=O)NC(=O)[C@H](CC(C)C)NC(=O)[C@H](Cc2c[nH]c3ccccc23)NC1=O)[C@@H](C)CC
Emax, cAMP efficacy assay in Saos-2 cells (15T, trifluoroacetate salt) (relative to control (SEQ ID NO: 32)) (Saos-2 PTH1R [2]): 1.04 | pEC50, cAMP efficacy assay in Saos-2 cells (15T, trifluoroacetate salt) (Saos-2 PTH1R [2]): 7.22 -log(M)

B5: H-Ac5c-Val-Aib-Glu-Ile-Glu-Leu-Leu-His-Gln-Har-Ala-Lys( )-Trp-Leu-Asn-Asp( )-NH2 (peptide)
chain: H-[Ac5c]V[Aib]EIELLHQ[hArg]AKWLND-NH2
modifications: lactam 13-17
SMILES: CC[C@H](C)[C@H](NC(=O)[C@H](CCC(=O)O)NC(=O)C(C)(C)NC(=O)[C@@H](NC(=O)C1(N)CCCC1)C(C)C)C(=O)N[C@@H](CCC(=O)O)C(=O)N[C@@H](CC(C)C)C(=O)N[C@@H](CC(C)C)C(=O)N[C@@H](Cc1c[nH]cn1)C(=O)N[C@@H](CCC(N)=O)C(=O)N[C@@H](CCCCNC(=N)N)C(=O)N[C@@H](C)C(=O)N[C@H]1CCCCNC(=O)C[C@@H](C(N)=O)NC(=O)[C@H](CC(N)=O)NC(=O)[C@H](CC(C)C)NC(=O)[C@H](Cc2c[nH]c3ccccc23)NC1=O
Emax, cAMP efficacy assay in Saos-2 cells (29T, trifluoroacetate salt) (relative to control (SEQ ID NO: 32)) (Saos-2 PTH1R [2]): 1.27 | pEC50, cAMP efficacy assay in Saos-2 cells (29T, trifluoroacetate salt) (Saos-2 PTH1R [2]): 6.95 -log(M)

B6: H-Ac5c-Val-Aib-Glu-Ile-Gln-Leu-Met-His-Gln-Arg-Ala-Lys( )-Trp-Leu-Asn-Asp( )-NH2 (peptide)
chain: H-[Ac5c]V[Aib]EIQLMHQRAKWLND-NH2
modifications: lactam 13-17
SMILES: CC[C@H](C)[C@H](NC(=O)[C@H](CCC(=O)O)NC(=O)C(C)(C)NC(=O)[C@@H](NC(=O)C1(N)CCCC1)C(C)C)C(=O)N[C@@H](CCC(N)=O)C(=O)N[C@@H](CC(C)C)C(=O)N[C@@H](CCSC)C(=O)N[C@@H](Cc1c[nH]cn1)C(=O)N[C@@H](CCC(N)=O)C(=O)N[C@@H](CCCNC(=N)N)C(=O)N[C@@H](C)C(=O)N[C@H]1CCCCNC(=O)C[C@@H](C(N)=O)NC(=O)[C@H](CC(N)=O)NC(=O)[C@H](CC(C)C)NC(=O)[C@H](Cc2c[nH]c3ccccc23)NC1=O
Emax, cAMP efficacy assay in Saos-2 cells (25T, trifluoroacetate salt) (relative to control (SEQ ID NO: 32)) (Saos-2 PTH1R [2]): 1.04 | pEC50, cAMP efficacy assay in Saos-2 cells (25T, trifluoroacetate salt) (Saos-2 PTH1R [2]): 8.05 -log(M)
